Experimental data reported in patent US20190375831A1.

Experiments:
[1] = target: recombinant PfCSP (rPfCSP, residues 21-375) (Plasmodium falciparum) (UniProt P19597); test: ELISA on coated rPfCSP, OD405nm
[2] = target: recombinant PfCSP (rPfCSP, residues 21-375) (Plasmodium falciparum) (UniProt P19597); test: biolayer interferometry, biotinylated CSP on the sensor, whole IgG in solution; apparent KD
[3] = target: recombinant PfCSP (rPfCSP, residues 21-375) (Plasmodium falciparum) (UniProt P19597)

recombinant PfCSP (rPfCSP, residues 21-375) (Plasmodium falciparum), sequence (P19597 21-375): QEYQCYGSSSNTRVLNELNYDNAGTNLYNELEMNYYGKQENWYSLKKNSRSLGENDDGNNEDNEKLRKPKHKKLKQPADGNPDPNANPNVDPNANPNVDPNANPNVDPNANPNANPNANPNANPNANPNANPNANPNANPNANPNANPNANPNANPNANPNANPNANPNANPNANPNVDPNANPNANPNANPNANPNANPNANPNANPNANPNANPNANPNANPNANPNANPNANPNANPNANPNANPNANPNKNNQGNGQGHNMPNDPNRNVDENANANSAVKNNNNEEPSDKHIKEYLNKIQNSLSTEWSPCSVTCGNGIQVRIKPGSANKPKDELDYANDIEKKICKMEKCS

Substance | EC50 (read off the curve) [1] [µg/mL] | Kd [2] [nM] | -TΔS1 [3] [kcal/mol] | -TΔS2 [3] [kcal/mol] | N1 (stoichiometry) [3] | N2 (stoichiometry) [3] | ΔH1 [3] [kcal/mol] | ΔH2 [3] [kcal/mol]
mAb2A10 (antibody) | 0.04 | 0.15 | – | – | – | – | – | –
mAb CIS43 (antibody) | 0.003 | 0.91 | 8.4 | 0.1 | 1.2 | 5.1 | -19.5 | -10.2
